{"source": "paper PMC2734569", "about": "“Functional mapping of the fission yeast DNA polymerase δ B-subunit Cdc1 by site-directed and random pentapeptide insertion mutagenesis” (BMC Molecular Biology, 2009)", "binders": {"B1": {"name": "Pol3 (fission yeast DNA polymerase delta catalytic subunit) (natural protein, Schizosaccharomyces pombe, UniProt P30316 1-1086, looked up)", "chain": "MTDRSSNEGVVLNKENYPFPRRNGSIHGEITDVKRRRLSERNGYGDKKGSSSKEKTSSFEDELAEYASQLDQDEIKSSKDQQWQRPALPAINPEKDDIYFQQIDSEEFTEGSVPSIRLFGVTDNGNSILVHVVGFLPYFYVKAPVGFRPEMLERFTQDLDATCNGGVIDHCIIEMKENLYGFQGNEKSPFIKIFTTNPRILSRARNVFERGEFNFEELFPVGVGVTTFESNTQYLLRFMIDCDVVGMNWIHLPASKYQFRYQNRVSNCQIEAWINYKDLISLPAEGQWSKMAPLRIMSFDIECAGRKGVFPDPSIDPVIQIASIVTQYGDSTPFVRNVFCVDTCSQIVGTQVYEFQNQAEMLSSWSKFVRDVDPDVLIGYNICNFDIPYLLDRAKSLRIHNFPLLGRIHNFFSVAKETTFSSKAYGTRESKTTSIPGRLQLDMLQVMQRDFKLRSYSLNAVCSQFLGEQKEDVHYSIITDLQNGTADSRRRLAIYCLKDAYLPQRLMDKLMCFVNYTEMARVTGVPFNFLLARGQQIKVISQLFRKALQHDLVVPNIRVNGTDEQYEGATVIEPIKGYYDTPIATLDFSSLYPSIMQAHNLCYTTLLDSNTAELLKLKQDVDYSVTPNGDYFVKPHVRKGLLPIILADLLNARKKAKADLKKETDPFKKAVLDGRQLALKVSANSVYGFTGATNGRLPCLAISSSVTSYGRQMIEKTKDVVEKRYRIENGYSHDAVVIYGDTDSVMVKFGVKTLPEAMKLGEEAANYVSDQFPNPIKLEFEKVYFPYLLISKKRYAGLFWTRTDTYDKMDSKGIETVRRDNCPLVSYVIDTALRKMLIDQDVEGAQLFTKKVISDLLQNKIDMSQLVITKALSKTDYAAKMAHVELAERMRKRDAGSAPAIGDRVAYVIIKGAQGDQFYMRSEDPIYVLENNIPIDAKYYLENQLSKPLLRIFEPILGEKASSLLHGDHTRTISMAAPSVGGIMKFAVKVETCLGCKAPIKKGKTALCENCLNRSAELYQRQVAQVNDLEVRFARLWTQCQRCQGSMHQDVICTSRDCPIFYMRIAEHKKLQQSVDLLKRFDEMSW", "notes": "DNA polymerase delta catalytic subunit Pol3, S. pombe; prey plasmid named pACT-Pol3 in the results and pGAD2F-Pol3 in the methods; also called Gal4-Pol3; pACT-Pol3; source: yeast two-hybrid fusion, in S. cerevisiae CTY10-5d"}}, "test_in_all_cases": "two-hybrid; LexA-Cdc1 bait (pBTM116 or pBTM116BN) with Gal4-Pol3 prey and co-expressed c-myc-tagged Cdc27 (pAA-Cdc27) in S. cerevisiae CTY10-5d; ONPG liquid culture beta-galactosidase assay, mean of triplicates, as percent of wild-type Cdc1", "conditions_in_all_cases": "partners not purified", "key": {"Cdc1-J7": {"target": "T1, Cdc1-J7 (Schizosaccharomyces pombe, UniProt P87324 1-462, Met-GlyValProLeuMet-Glu)", "T1 construct": "Cdc1, S. pombe, with a pentapeptide inserted after residue 393; source: yeast two-hybrid fusion, in S. cerevisiae CTY10-5d", "T1 sequence (looked up)": "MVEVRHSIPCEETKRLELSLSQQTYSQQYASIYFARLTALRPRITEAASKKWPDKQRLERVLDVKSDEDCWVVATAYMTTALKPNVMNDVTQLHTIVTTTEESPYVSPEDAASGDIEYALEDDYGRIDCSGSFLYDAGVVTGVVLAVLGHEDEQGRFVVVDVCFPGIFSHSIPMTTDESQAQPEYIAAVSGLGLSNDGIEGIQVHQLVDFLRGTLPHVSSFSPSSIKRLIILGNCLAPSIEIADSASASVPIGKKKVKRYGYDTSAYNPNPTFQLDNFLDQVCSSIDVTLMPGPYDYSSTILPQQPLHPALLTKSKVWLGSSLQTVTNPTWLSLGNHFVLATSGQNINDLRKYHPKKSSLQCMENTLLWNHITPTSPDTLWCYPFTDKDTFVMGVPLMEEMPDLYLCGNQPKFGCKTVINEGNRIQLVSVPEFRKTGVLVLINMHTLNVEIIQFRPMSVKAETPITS"}, "Cdc1-A9": {"target": "T2, Cdc1-A9 (Schizosaccharomyces pombe, UniProt P87324 1-462, Pro292Ala | Gly293Ala)", "T2 construct": "Cdc1, S. pombe, double point mutant (A1 and A2 combined); source: yeast two-hybrid fusion, in S. cerevisiae CTY10-5d", "T2 sequence (looked up)": "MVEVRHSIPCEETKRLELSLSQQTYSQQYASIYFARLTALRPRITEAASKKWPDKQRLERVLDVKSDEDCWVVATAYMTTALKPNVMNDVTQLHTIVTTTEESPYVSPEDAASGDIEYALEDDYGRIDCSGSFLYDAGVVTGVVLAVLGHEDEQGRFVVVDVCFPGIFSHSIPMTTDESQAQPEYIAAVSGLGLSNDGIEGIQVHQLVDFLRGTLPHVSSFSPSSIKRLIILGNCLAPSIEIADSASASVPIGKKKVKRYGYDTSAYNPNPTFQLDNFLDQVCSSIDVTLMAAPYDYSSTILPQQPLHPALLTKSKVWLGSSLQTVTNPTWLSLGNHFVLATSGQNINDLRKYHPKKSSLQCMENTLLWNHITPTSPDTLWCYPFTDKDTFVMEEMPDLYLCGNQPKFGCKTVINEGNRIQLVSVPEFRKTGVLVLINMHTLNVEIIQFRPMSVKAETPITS"}, "Cdc1-E4": {"target": "T3, Cdc1-E4 (Schizosaccharomyces pombe, UniProt P87324 1-462, Cys-GlyValProProCys-Glu)", "T3 construct": "Cdc1, S. pombe, with a pentapeptide inserted after residue 10; source: yeast two-hybrid fusion, in S. cerevisiae CTY10-5d", "T3 sequence (looked up)": "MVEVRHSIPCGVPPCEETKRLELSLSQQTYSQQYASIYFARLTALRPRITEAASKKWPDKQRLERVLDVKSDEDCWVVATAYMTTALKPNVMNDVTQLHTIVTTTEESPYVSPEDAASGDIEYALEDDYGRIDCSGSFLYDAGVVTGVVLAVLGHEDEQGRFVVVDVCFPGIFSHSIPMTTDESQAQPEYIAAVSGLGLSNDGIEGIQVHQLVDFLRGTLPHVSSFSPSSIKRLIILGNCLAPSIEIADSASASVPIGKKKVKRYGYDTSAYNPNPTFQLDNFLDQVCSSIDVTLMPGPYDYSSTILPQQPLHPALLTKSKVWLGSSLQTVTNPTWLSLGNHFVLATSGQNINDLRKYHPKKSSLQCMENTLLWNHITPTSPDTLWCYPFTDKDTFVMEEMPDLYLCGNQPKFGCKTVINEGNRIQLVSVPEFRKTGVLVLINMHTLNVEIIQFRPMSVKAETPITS"}, "Cdc1-E5": {"target": "T4, Cdc1-E5 (Schizosaccharomyces pombe, UniProt P87324 1-462, Val-MetGlyTyrProVal-Met)", "T4 construct": "Cdc1, S. pombe, with a pentapeptide inserted after residue 86; source: yeast two-hybrid fusion, in S. cerevisiae CTY10-5d", "T4 sequence (looked up)": "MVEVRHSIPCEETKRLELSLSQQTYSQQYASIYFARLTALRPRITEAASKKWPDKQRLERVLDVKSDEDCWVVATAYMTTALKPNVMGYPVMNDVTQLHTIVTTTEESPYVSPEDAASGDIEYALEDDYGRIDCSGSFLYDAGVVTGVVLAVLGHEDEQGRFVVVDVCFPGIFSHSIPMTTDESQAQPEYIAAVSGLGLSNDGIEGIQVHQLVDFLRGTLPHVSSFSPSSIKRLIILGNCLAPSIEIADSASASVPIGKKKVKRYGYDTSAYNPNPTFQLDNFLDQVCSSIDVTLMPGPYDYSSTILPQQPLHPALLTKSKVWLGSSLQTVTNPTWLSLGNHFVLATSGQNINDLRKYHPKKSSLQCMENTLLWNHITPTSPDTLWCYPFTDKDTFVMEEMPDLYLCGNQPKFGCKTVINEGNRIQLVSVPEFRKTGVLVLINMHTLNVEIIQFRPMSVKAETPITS"}}}
{"binder": "B1", "values": [{"measurement": "two-hybrid beta-galactosidase activity, % of wild-type Cdc1", "setting": "Cdc1-J7", "result": "< 1", "unit": "%"}, {"measurement": "two-hybrid beta-galactosidase activity, % of wild-type Cdc1", "setting": "Cdc1-A9", "result": "< 1", "unit": "%"}, {"measurement": "two-hybrid beta-galactosidase activity, % of wild-type Cdc1", "setting": "Cdc1-E4", "result": 16, "unit": "%"}, {"measurement": "two-hybrid beta-galactosidase activity, % of wild-type Cdc1", "setting": "Cdc1-E5", "result": 48, "unit": "%"}]}
